In patent US6730486 (INSTITUT NATIONAL DE LA SANTE ET DE LA RECHERCHE MEDICALE, dated 2004):

B1: human βTrCP protein (h-βTrCP) (other)
chain: MDPAEAVLQEKALKFMNSSEREDCNNGEPPRKIIPEKNSLRQTYNSCARLCLNQETVCLASTAMKTENCVAKTKLANGTSSMIVPKQRKLSASYEKEKELCVKYFEQWSESDQVEFVEHLISQMCHYQHGHINSYLKPMLQRDFITALPARGLDHIAENILSYLDAKSLCAAELVCKEWYRVTSDGMLWKKLIERMVRTDSLWRGLAERRGWGQYLFKNKPPDGNAPPNSFYRALYPKIIQDIETIESNWRCGRHSLQRIHCRSETSKGVYCLQYDDQKIVSGLRDNTIKIWDKNTLECKRILTGHTGSVLCLQYDERVIITGSSDSTVRVWDVNTGEMLNTLIHHCEAVLHLRFNNGMMVTCSKDRSIAVWDMASPTDITLRRVLVGHRAAVNVVDFDDKYIVSASGDRTIKVWNTSTCEFVRTLNGHKRGIACLQYRDRLVVSGSSDNTIRLWDIECGACLRVLEGHEELVRCIRFDNKRIVSGAYDGKIKVWDLVAALDPRAPAGTLCLRTLVEHSGRVFRLQFDEFQIVSSSHDDTILIWDFLNDPAAQAEPPRSPSRTYTYISR
notes: 569 amino acids; also called whole h-βTrCP protein

Legend:
[1] = target: endogenous IκBα protein of 293 or Hela cells, phosphorylated form (human) (UniProt P25963); test: cell-based or functional assay
[2] = target: T1, βCat (whole normal β-catenin protein) (UniProt P35222 1-781); test: yeast two-hybrid, FIG. 10
T1 construct: Two-hybrid hybrid; also called whole β-catenin protein
T1 sequence (looked up): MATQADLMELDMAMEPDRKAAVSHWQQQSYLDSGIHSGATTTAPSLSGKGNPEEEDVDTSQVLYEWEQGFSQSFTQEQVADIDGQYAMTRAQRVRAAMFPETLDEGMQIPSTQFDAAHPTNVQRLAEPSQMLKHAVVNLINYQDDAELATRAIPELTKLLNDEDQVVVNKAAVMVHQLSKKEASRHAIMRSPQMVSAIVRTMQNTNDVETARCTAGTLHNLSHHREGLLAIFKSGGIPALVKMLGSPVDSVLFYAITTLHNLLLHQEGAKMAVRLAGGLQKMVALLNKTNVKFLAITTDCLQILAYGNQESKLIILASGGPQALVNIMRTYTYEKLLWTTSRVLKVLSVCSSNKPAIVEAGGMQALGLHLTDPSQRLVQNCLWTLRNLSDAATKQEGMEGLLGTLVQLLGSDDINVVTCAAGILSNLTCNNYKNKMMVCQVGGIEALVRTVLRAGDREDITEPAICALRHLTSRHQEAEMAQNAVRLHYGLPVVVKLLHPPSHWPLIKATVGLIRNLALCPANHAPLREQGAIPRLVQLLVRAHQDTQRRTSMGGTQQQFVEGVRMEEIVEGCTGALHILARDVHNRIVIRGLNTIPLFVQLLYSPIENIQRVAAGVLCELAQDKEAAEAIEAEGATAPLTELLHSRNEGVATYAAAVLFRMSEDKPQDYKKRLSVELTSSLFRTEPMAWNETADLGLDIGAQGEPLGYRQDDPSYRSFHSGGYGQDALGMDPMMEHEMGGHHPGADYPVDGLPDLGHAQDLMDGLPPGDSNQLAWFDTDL

[3] = target: B1; test: yeast two-hybrid
[4] = target: T2, KIAA 0696 (βTrCP2), human βTrCP protein isolated by ISHIKAWA et al. (human, UniProt Q9UKB1 1-542, limits assumed); test: yeast two-hybrid
T2 construct: Two-hybrid hybrid; also called βTCP2; KIA 696
T2 sequence (looked up): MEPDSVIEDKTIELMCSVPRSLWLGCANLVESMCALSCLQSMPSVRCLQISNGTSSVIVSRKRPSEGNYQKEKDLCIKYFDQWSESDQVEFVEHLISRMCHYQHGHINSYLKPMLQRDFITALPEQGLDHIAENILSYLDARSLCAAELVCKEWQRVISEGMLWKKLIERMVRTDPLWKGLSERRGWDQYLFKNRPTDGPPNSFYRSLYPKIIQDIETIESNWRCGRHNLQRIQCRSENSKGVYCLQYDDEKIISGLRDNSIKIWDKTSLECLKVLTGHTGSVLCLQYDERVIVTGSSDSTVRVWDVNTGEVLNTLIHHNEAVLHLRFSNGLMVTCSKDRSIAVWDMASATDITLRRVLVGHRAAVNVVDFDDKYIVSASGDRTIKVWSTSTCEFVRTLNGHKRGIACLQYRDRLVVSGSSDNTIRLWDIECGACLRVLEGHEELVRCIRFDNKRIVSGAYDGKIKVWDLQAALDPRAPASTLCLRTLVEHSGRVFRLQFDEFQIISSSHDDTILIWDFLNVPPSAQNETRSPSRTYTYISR

human Skp1p protein = human Skp1p protein (human, UniProt P63208 1-163); test: yeast two-hybrid (strain L40)
Sequence of human Skp1p protein (P63208 whole entry): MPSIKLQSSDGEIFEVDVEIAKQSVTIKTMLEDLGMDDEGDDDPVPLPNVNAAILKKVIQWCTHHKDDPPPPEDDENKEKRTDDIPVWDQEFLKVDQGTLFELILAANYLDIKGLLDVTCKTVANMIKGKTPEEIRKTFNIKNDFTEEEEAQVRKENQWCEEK

[5] = target: B1; test: yeast two-hybrid (His3 and LacZ reporters)

Q: With “h-βTrCPΔF fragment (deleted residues: 32 to 179) (from UniProt Q9Y297 1-605)” as the molecule, how does the fold decrease in transcription activation induced by TNFα (NFκB-dependent luciferase reporter, FIG. 7) [1] read?
A: 20 fold

Q: Does B1 bind [2]?
A: binds

B2: IκBα S32-36A (IκBα mutant at serines S32 and S36 so that there is no phosphorylation) (other, UniProt P25963 1-317, looked up)
chain: MFQAAERPQEWAMEGPRDGLKKERLLDDRHDAGLDAMKDEEYEQMVKELQEIRLEPQEVPRGSEPWKQQLTEDGDSFLHLAIIHEEKALTMEVIRQVKGDLAFLNFQNNLQQTPLHLAVITNQPEIAEALLGAGCDPELRDFRGNTPLHLACEQGCLASVGVLTQSCTTPHLHSILKATNYNGHTCLHLASIHGYLGIVELLVSLGADVNAQEPCNGRTALHLAVDLQNPDLVSLLLKCGADVNRVTYQGYSPYQLTWGRPSTRIQQQLGQLTLENLQMLPESEDEESYDTESEFTEFTEDELPYDDCVFGGQRLTL
notes: Two-hybrid hybrid; also called IκBα S32-36AA
Q: Does B2 bind [3]?
A: no binding

B3: βCat1→130 S33-37AA (oncogenic β-catenin protein mutated on serine residues S33 and S37 so that there is no phosphorylation) (other, UniProt P35222 1-130, looked up)
chain: MATQADLMELDMAMEPDRKAAVSHWQQQSYLDAGIHAGATTTAPSLSGKGNPEEEDVDTSQVLYEWEQGFSQSFTQEQVADIDGQYAMTRAQRVRAAMFPETLDEGMQIPSTQFDAAHPTNVQRLAEPSQ
notes: range 1-130; also called mutated β-catenin
Q: Does B3 bind [3]?
A: no binding

Q: Does B3 bind [4]?
A: no binding

B4: cytoplasmic region of CD4 (CD4c) (receptor, UniProt P01730 419-458, looked up)
chain: CVRCRHRRRQAERMSQIKRLLSEKKTCQCPHRFQKTCSPI
notes: domain: cytoplasmic region; Two-hybrid fusion; also called CD4 cytoplasmic domain
Q: Does B4 bind (human Skp1p protein)?
A: no binding

Q: Does B4 bind [5]?
A: no binding
